B1: Glycine--tRNA ligase (Homo sapiens), P41250 (parent)
chain: MPSPRPVLLRGARAALLLLLPPRLLARPSLLLRRSLSAASCPPISLPAAASRSSMDGAGAEEVLAPLRLAVRQQGDLVRKLKEDKAPQVDVDKAVAELKARKRVLEAKELALQPKDDIVDRAKMEDTLKRRFFYDQAFAIYGGVSGLYDFGPVGCALKNNIIQTWRQHFIQEEQILEIDCTMLTPEPVLKTSGHVDKFADFMVKDVKNGECFRADHLLKAHLQKLMSDKKCSVEKKSEMESVLAQLDNYGQQELADLFVNYNVKSPITGNDLSPPVSFNLMFKTFIGPGGNMPGYLRPETAQGIFLNFKRLLEFNQGKLPFAAAQIGNSFRNEISPRSGLIRVREFTMAEIEHFVDPSEKDHPKFQNVADLHLYLYSAKAQVSGQSARKMRLGDAVEQGVINNTVLGYFIGRIYLYLTKVGISPDKLRFRQHMENEMAHYACDCWDAESKTSYGWIEIVGCADRSCYDLSCHARATKVPLVAEKPLKEPKTVNVVQFEPSKGAIGKAYKKDAKLVMEYLAICDECYITEMEMLLNEKGEFTIETEGKTFQLTKDMINVKRFQKTLYVEEVVPNVIEPSFGLGRIMYTVFEHTFHVREGDEQRTFFSFPAVVAPFKCSVLPLSQNQEFMPFVKELSEALTRHGVSHKVDDSSGSIGRRYARTDEIGVAFGVTIDFDTVNKTPHTATLRDRDSMRQIRAEISELPSIVQDLANGNITWADVEARYPLFEGQETGKKETIEE

Variants of: B1
Settings: with hdac6_human HDAC6, Q9UBN7
hdac6_human HDAC6, Q9UBN7, sequence (Q9UBN7 whole entry): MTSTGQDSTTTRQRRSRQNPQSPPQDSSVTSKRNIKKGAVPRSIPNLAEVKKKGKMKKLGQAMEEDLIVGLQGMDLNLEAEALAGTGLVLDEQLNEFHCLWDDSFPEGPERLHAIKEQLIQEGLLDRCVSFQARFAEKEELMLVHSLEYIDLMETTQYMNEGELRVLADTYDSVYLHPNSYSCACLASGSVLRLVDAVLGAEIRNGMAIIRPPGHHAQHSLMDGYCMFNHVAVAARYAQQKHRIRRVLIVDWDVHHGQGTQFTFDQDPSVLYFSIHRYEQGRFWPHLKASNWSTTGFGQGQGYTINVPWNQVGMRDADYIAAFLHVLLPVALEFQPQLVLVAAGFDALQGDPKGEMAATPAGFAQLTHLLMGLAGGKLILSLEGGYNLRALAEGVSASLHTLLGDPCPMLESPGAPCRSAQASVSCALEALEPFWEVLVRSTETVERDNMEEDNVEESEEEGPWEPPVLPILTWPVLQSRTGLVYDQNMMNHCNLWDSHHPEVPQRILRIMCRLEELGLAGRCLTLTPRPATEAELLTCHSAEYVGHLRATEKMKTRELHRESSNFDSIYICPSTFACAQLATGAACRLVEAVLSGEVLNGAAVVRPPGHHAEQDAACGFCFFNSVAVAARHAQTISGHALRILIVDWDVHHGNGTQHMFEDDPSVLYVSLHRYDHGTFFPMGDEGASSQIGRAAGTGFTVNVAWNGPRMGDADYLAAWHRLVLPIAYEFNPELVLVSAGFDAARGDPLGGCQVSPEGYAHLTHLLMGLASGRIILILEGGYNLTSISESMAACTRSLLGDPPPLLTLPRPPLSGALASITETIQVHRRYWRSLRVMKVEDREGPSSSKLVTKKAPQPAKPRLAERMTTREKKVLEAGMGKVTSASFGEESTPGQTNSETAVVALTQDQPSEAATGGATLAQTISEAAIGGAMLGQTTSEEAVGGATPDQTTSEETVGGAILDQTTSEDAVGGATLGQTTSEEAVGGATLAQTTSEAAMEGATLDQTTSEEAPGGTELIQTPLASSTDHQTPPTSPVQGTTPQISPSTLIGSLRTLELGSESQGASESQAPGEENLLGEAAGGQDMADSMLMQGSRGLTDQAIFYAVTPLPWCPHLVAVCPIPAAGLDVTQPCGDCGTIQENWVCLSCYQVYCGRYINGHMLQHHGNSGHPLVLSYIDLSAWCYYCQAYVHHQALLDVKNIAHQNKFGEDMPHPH

Variant	effect of a mutation on the interaction
C211R	with no effect

From IntAct's records for PubMed 29415205
